The values that follow come from patent US20170349667A1.

The assay deals with human c-Met on cells (MKN-45, A549, HPAF, BxPC3) (human) (UniProt P08581). Put plainly: cell-based or functional assay.
Chain of human c-Met on cells (MKN-45, A549, HPAF, BxPC3) (human) (P08581 25-1390): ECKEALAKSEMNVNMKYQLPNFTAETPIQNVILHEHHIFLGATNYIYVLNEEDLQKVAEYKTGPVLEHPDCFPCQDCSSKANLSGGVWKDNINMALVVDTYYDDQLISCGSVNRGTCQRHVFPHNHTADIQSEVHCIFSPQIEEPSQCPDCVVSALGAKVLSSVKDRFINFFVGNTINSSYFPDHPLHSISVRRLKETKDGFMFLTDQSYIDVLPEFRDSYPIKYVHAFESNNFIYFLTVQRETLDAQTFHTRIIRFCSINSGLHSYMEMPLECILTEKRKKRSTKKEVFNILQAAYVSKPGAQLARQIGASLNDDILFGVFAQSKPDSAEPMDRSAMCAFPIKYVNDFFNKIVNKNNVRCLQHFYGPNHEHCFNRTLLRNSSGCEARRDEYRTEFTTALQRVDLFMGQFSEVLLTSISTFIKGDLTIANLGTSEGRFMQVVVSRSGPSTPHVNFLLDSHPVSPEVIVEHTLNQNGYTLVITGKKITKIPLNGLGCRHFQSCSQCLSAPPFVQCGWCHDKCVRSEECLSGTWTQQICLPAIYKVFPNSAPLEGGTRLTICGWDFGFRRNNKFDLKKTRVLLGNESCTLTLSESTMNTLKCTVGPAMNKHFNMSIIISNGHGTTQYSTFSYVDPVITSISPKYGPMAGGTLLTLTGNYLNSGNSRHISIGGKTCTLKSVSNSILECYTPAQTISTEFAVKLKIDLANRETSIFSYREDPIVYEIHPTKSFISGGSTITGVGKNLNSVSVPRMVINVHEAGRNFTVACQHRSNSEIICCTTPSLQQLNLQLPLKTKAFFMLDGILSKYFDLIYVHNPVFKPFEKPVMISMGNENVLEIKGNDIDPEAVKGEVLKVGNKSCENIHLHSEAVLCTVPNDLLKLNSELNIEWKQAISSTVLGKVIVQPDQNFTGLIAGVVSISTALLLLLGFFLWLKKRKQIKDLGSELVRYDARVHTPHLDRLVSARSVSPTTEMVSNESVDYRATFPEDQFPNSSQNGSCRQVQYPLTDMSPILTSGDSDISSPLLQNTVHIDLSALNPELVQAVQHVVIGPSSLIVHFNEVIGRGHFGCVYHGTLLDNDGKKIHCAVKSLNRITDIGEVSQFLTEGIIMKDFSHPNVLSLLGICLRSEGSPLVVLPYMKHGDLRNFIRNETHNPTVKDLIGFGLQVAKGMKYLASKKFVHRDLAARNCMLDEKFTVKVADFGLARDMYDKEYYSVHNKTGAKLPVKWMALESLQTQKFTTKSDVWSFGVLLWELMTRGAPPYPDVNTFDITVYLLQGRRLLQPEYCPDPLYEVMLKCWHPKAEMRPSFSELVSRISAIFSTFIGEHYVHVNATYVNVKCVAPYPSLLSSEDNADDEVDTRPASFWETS

Take murine 5D5 antibody: the down-regulation of total c-Met on the surface of MKN-45 cells was in the range of 50 to 60%.
